The target of this test is base subcomplex, heterologously expressed in E. coli (S. cerevisiae) (UniProt P38764).

We go through 1 substance from PMC4560640.

On to “Ubp6, wild type (from UniProt P43593 1-499) (enzyme)”, for which the Ub-AMC cleavage activity of Ubp6 with purified base against Ubp6 alone came out at 300 fold.
